# In patent publication US20180250358A1, “GHRH AGONISTS FOR THE TREATMENT OF ISCHEMIC DISORDERS” (published 2018):
# Non-standard residues stand in square brackets, D forms with d. No end group written: not given here. *: point of attachment. Desaminotyrosyl = O=C(CCc1ccc(O)cc1)*; hArg = N=C(N)NCCCC[C@H](N)C(=O)O; Agmatine = N=C(N)NCCCCN*; Nle = CCCC[C@H](N)C(=O)O; Orn = NCCC[C@H](N)C(=O)O; Abu = CC[C@H](N)C(=O)O; Aoc = NCCCCCCCC(=O)O; GABA = NCCCC(=O)O
# T1: GHRH receptor of human pituitary membranes (human, UniProt Q02643)
# T1 sequence: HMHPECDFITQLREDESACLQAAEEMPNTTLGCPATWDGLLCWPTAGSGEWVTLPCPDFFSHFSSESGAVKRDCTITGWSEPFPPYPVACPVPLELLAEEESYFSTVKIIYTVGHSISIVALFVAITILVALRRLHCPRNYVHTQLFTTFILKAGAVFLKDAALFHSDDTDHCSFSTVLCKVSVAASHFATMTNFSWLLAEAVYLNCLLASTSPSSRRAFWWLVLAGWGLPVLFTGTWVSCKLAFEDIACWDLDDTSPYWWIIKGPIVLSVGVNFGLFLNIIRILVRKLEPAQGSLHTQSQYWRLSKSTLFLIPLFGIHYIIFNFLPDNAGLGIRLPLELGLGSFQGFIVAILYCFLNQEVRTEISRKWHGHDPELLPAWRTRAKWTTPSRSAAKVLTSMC
# B1: P-20350 [Dat^1, D-Ala^2, Gln^8, Orn^12, Abu^15, Orn^21, Nle^27, Asp^28, Agm^29]hGHRH(1-29)NH2 (peptide)
# peptide: [Desaminotyrosyl][dA]DAIFTQSYR[Orn]VL[Abu]QLSAR[Orn]LLQDI[Nle]D[Agmatine]
# SMILES: CCCC[C@H](NC(=O)[C@@H](NC(=O)[C@H](CC(=O)O)NC(=O)[C@H](CCC(N)=O)NC(=O)[C@H](CC(C)C)NC(=O)[C@H](CC(C)C)NC(=O)[C@H](CCCN)NC(=O)[C@H](CCCNC(=N)N)NC(=O)[C@H](C)NC(=O)[C@H](CO)NC(=O)[C@H](CC(C)C)NC(=O)[C@H](CCC(N)=O)NC(=O)[C@H](CC)NC(=O)[C@H](CC(C)C)NC(=O)[C@@H](NC(=O)[C@H](CCCN)NC(=O)[C@H](CCCNC(=N)N)NC(=O)[C@H](Cc1ccc(O)cc1)NC(=O)[C@H](CO)NC(=O)[C@H](CCC(N)=O)NC(=O)[C@@H](NC(=O)[C@H](Cc1ccccc1)NC(=O)[C@@H](NC(=O)[C@H](C)NC(=O)[C@H](CC(=O)O)NC(=O)[C@@H](C)NC(=O)CCc1ccc(O)cc1)[C@@H](C)CC)[C@@H](C)O)C(C)C)[C@@H](C)CC)C(=O)N[C@@H](CC(=O)O)C(=O)NCCCCNC(=N)N
# B2: P-25502 [Dat^1, D-Ala^2, Fpa5^6, Orn^12, Abu^15, Orn^21, Nle^27, Gab^30]hGHRH(1-30)NH2 (peptide)
# peptide: YADAIFTNSYRKVLGQLSARKLLQDIMSRQ
# modifications: Dat^1; D-Ala^2; Fpa5^6; Orn^12; Abu^15; Orn^21; Nle^27; Gab^30 (in place of Gln^30); C-terminal -NH2
# B3: P-29702 [Dat^1, D-Ala^2, Orn^12, Abu^15, Orn^21, Nle^27, Gln-Gab^30]hGHRH(1-30)NH2 (peptide)
# peptide: [Desaminotyrosyl][dA]DAIFTNSYR[Orn]VL[Abu]QLSAR[Orn]LLQDI[Nle]SRQ-{GABA-NH2}
# SMILES: CCCC[C@H](NC(=O)[C@@H](NC(=O)[C@H](CC(=O)O)NC(=O)[C@H](CCC(N)=O)NC(=O)[C@H](CC(C)C)NC(=O)[C@H](CC(C)C)NC(=O)[C@H](CCCN)NC(=O)[C@H](CCCNC(=N)N)NC(=O)[C@H](C)NC(=O)[C@H](CO)NC(=O)[C@H](CC(C)C)NC(=O)[C@H](CCC(N)=O)NC(=O)[C@H](CC)NC(=O)[C@H](CC(C)C)NC(=O)[C@@H](NC(=O)[C@H](CCCN)NC(=O)[C@H](CCCNC(=N)N)NC(=O)[C@H](Cc1ccc(O)cc1)NC(=O)[C@H](CO)NC(=O)[C@H](CC(N)=O)NC(=O)[C@@H](NC(=O)[C@H](Cc1ccccc1)NC(=O)[C@@H](NC(=O)[C@H](C)NC(=O)[C@H](CC(=O)O)NC(=O)[C@@H](C)NC(=O)CCc1ccc(O)cc1)[C@@H](C)CC)[C@@H](C)O)C(C)C)[C@@H](C)CC)C(=O)N[C@@H](CO)C(=O)N[C@@H](CCCNC(=N)N)C(=O)N[C@@H](CCC(N)=O)C(=O)NCCCC(N)=O
# B4: P-23254 [Dat^1, D-Ala^2, Thr^8, Orn^12, Abu^15, Orn^21, Nle^27, Asp^28, Har^30]hGHRH(1-30)NH2 (peptide)
# peptide: [Desaminotyrosyl][dA]DAIFTTSYR[Orn]VL[Abu]QLSAR[Orn]LLQDI[Nle]DR[hArg]-NH2
# SMILES: CCCC[C@H](NC(=O)[C@@H](NC(=O)[C@H](CC(=O)O)NC(=O)[C@H](CCC(N)=O)NC(=O)[C@H](CC(C)C)NC(=O)[C@H](CC(C)C)NC(=O)[C@H](CCCN)NC(=O)[C@H](CCCNC(=N)N)NC(=O)[C@H](C)NC(=O)[C@H](CO)NC(=O)[C@H](CC(C)C)NC(=O)[C@H](CCC(N)=O)NC(=O)[C@H](CC)NC(=O)[C@H](CC(C)C)NC(=O)[C@@H](NC(=O)[C@H](CCCN)NC(=O)[C@H](CCCNC(=N)N)NC(=O)[C@H](Cc1ccc(O)cc1)NC(=O)[C@H](CO)NC(=O)[C@@H](NC(=O)[C@@H](NC(=O)[C@H](Cc1ccccc1)NC(=O)[C@@H](NC(=O)[C@H](C)NC(=O)[C@H](CC(=O)O)NC(=O)[C@@H](C)NC(=O)CCc1ccc(O)cc1)[C@@H](C)CC)[C@@H](C)O)[C@@H](C)O)C(C)C)[C@@H](C)CC)C(=O)N[C@@H](CC(=O)O)C(=O)N[C@@H](CCCNC(=N)N)C(=O)N[C@@H](CCCCNC(=N)N)C(N)=O
# B5: P-23252 [Dat^1-D-Ala^2, Orn^12, Abu^15, Orn^21, Nle^27, Asp^28, Har^30]hGHRH(1-30)NH2 (peptide)
# peptide: [Desaminotyrosyl][dA]DAIFTNSYR[Orn]VL[Abu]QLSAR[Orn]LLQDI[Nle]DR[hArg]-NH2
# SMILES: CCCC[C@H](NC(=O)[C@@H](NC(=O)[C@H](CC(=O)O)NC(=O)[C@H](CCC(N)=O)NC(=O)[C@H](CC(C)C)NC(=O)[C@H](CC(C)C)NC(=O)[C@H](CCCN)NC(=O)[C@H](CCCNC(=N)N)NC(=O)[C@H](C)NC(=O)[C@H](CO)NC(=O)[C@H](CC(C)C)NC(=O)[C@H](CCC(N)=O)NC(=O)[C@H](CC)NC(=O)[C@H](CC(C)C)NC(=O)[C@@H](NC(=O)[C@H](CCCN)NC(=O)[C@H](CCCNC(=N)N)NC(=O)[C@H](Cc1ccc(O)cc1)NC(=O)[C@H](CO)NC(=O)[C@H](CC(N)=O)NC(=O)[C@@H](NC(=O)[C@H](Cc1ccccc1)NC(=O)[C@@H](NC(=O)[C@H](C)NC(=O)[C@H](CC(=O)O)NC(=O)[C@@H](C)NC(=O)CCc1ccc(O)cc1)[C@@H](C)CC)[C@@H](C)O)C(C)C)[C@@H](C)CC)C(=O)N[C@@H](CC(=O)O)C(=O)N[C@@H](CCCNC(=N)N)C(=O)N[C@@H](CCCCNC(=N)N)C(N)=O
# B6: P-23256 [Dat^1, D-Ala^2, Ala^8, Orn^12, Abu^15, Orn^21, Nle^27, Asp^28, Har^30]hGHRH(1-30)NH2 (peptide)
# peptide: [Desaminotyrosyl][dA]DAIFTASYR[Orn]VL[Abu]QLSAR[Orn]LLQDI[Nle]DR[hArg]-NH2
# SMILES: CCCC[C@H](NC(=O)[C@@H](NC(=O)[C@H](CC(=O)O)NC(=O)[C@H](CCC(N)=O)NC(=O)[C@H](CC(C)C)NC(=O)[C@H](CC(C)C)NC(=O)[C@H](CCCN)NC(=O)[C@H](CCCNC(=N)N)NC(=O)[C@H](C)NC(=O)[C@H](CO)NC(=O)[C@H](CC(C)C)NC(=O)[C@H](CCC(N)=O)NC(=O)[C@H](CC)NC(=O)[C@H](CC(C)C)NC(=O)[C@@H](NC(=O)[C@H](CCCN)NC(=O)[C@H](CCCNC(=N)N)NC(=O)[C@H](Cc1ccc(O)cc1)NC(=O)[C@H](CO)NC(=O)[C@H](C)NC(=O)[C@@H](NC(=O)[C@H](Cc1ccccc1)NC(=O)[C@@H](NC(=O)[C@H](C)NC(=O)[C@H](CC(=O)O)NC(=O)[C@@H](C)NC(=O)CCc1ccc(O)cc1)[C@@H](C)CC)[C@@H](C)O)C(C)C)[C@@H](C)CC)C(=O)N[C@@H](CC(=O)O)C(=O)N[C@@H](CCCNC(=N)N)C(=O)N[C@@H](CCCCNC(=N)N)C(N)=O
# B7: P-21304 [Dat^1, D-Ala^2, Gln^8, Orn^12, Abu^15, Orn^21, Nle^27, Asp^28, Amc^30]hGHRH(1-30)NH2 (peptide)
# peptide: [Desaminotyrosyl][dA]DAIFTQSYR[Orn]VL[Abu]QLSAR[Orn]LLQDI[Nle]DR[Aoc]-NH2
# SMILES: CCCC[C@H](NC(=O)[C@@H](NC(=O)[C@H](CC(=O)O)NC(=O)[C@H](CCC(N)=O)NC(=O)[C@H](CC(C)C)NC(=O)[C@H](CC(C)C)NC(=O)[C@H](CCCN)NC(=O)[C@H](CCCNC(=N)N)NC(=O)[C@H](C)NC(=O)[C@H](CO)NC(=O)[C@H](CC(C)C)NC(=O)[C@H](CCC(N)=O)NC(=O)[C@H](CC)NC(=O)[C@H](CC(C)C)NC(=O)[C@@H](NC(=O)[C@H](CCCN)NC(=O)[C@H](CCCNC(=N)N)NC(=O)[C@H](Cc1ccc(O)cc1)NC(=O)[C@H](CO)NC(=O)[C@H](CCC(N)=O)NC(=O)[C@@H](NC(=O)[C@H](Cc1ccccc1)NC(=O)[C@@H](NC(=O)[C@H](C)NC(=O)[C@H](CC(=O)O)NC(=O)[C@@H](C)NC(=O)CCc1ccc(O)cc1)[C@@H](C)CC)[C@@H](C)O)C(C)C)[C@@H](C)CC)C(=O)N[C@@H](CC(=O)O)C(=O)N[C@@H](CCCNC(=N)N)C(=O)NCCCCCCCC(N)=O
# Molecular target: T1, GHRH receptor of human pituitary …
# Test: competition vs 125I-JV-1-42, human pituitary membranes
# Description: The final binding affinities were expressed as IC₅₀ values and were calculated by using the LIGAND PC computerized curve-fitting program of Munson and Rodbard as modified by McPherson.
IC50 [nM],relative affinity (binding potency) vs GHRH,relative affinity (binding potency) vs JI-38 [vs JI-38=1],Binder
0.04,102 vs GHRH(1-29)=1,42.7,B1
4.06,,,YADAIFTNSYRKVLGQLSARKLLQDIMSR-NH2 (ligand) [hGHRH(1-29)NH2]
0.07,58 vs GHRH(1-29)=1,24.4,B2
0.05,81.2 vs GHRH(1-29)=1,34.2,B3

# Molecular target: T1, GHRH receptor of human pituitary …
# Test: competition vs 125I-[His1,Nle27]hGHRH(1-32)NH2, human pituitary membranes
# Description: Normal human pituitary was purchased from the National Hormone and Peptide Program (UCLA Medical Center, Torrance, Calif.).
IC50 [nM],relative affinity (binding potency) compared to JI-38 [vs JI-38=1],relative affinity (binding potency) compared to hGHRH(1-29),Binder
2.16,1.27,3.54 vs hGHRH(1-29)NH2=1,B2
3.3,0.83,2.31 vs hGHRH(1-29)NH2=1,B3

# Molecular target: T1, GHRH receptor of human pituitary …
# Test: as above
# Remark: another data set of the same source
# Description: (§1) Normal human pituitaries were purchased from the National Hormone and Peptide Program (A.F. Parlow, Los Angeles, County Harbor-UCLA Medical Center, Torrance, Calif.).
IC50 [nM],relative affinity (binding potency) vs GHRH,relative affinity (binding potency) vs JI-38 [vs JI-38=1],Binder
5.92,,,YADAIFTNSYRKVLGQLSARKLLQDIMSR-NH2 (ligand) [hGHRH(1-29)NH2]
0.07,84.5 vs GHRH(1-29)=1,27.8,B4
0.14,42.3 vs GHRH(1-29)=1,13.9,B5
0.04,148 vs GHRH(1-29)=1,48.7,B6
0.08,74 vs GHRH(1-29)=1,24.4,B7

# Molecular target: T1, GHRH receptor of human pituitary …
# Test: competition vs 125I-JV-1-42, human pituitary membranes
# Remark: another data set of the same source
# Description: as §1
IC50 [nM],relative affinity (binding potency) vs JI-38 [vs JI-38=1],Binder
0.52,8.37,B1
0.33,13.2,B2
0.86,5.06,B3
